Data on 2 substances can be found in patent US20150044137A1.

“And” between values parts separate entries of the source, which are not always exact repeats. Equal values may be shown once.

Test [1] concerns the target Yu2 gp120 HIV-1 Env protein (HIV-1 (strain Yu2)) (UniProt P35961).

As to CD4-Ig (Fc fusion), the IC50 (read off the curve) in test [1] is 0.08 µg/mL and 0.1 µg/mL.

Consider VRC01 (antibody), for which, in the test with HIV-1 gp120 (HIV-1), the contribution of CDR H1 to gp120-binding surface area came to 44 Å2, the contribution of CDR H2/FR3 to gp120-binding surface area amounted to 701 Å2, the contribution of CDR H3 to gp120-binding surface area came to 122 Å2 and the total gp120-binding surface area (Total A 2) turned out to be 867 Å2.
